For one molecule, Kd results are on record in publication PMC10783520, “Mutual promotion of co-condensation of KRAS G-quadruplex and a well-folded protein HMGB1”.

Common to all, as to conditions: protein: recombinant; intramolecular parallel G4, K+
The target of data set [1] is T1, HMGB1 A box (termed HMGB1) (UniProt P09429 9-78).
T1 sequence: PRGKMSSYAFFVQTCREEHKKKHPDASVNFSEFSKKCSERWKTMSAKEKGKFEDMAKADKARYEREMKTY
The data set can be described thus: ITC; K+; K+-containing buffer; 20 or 200 mM K+ in Fig S9 titrations (10 uM HMGB1); full buffer, pH and temperature of binding assays not in material (phase-separation assays: 10 mM HEPES pH 7.4, 20 mM K+, 10% PEG8K).

For data set [2], the target named is T1, HMGB1 A box (termed HMGB1). The data set can be described thus: fluorescence titration; 200 mM K+; K+-containing buffer; 20 or 200 mM K+ in Fig S9 titrations (10 uM HMGB1); full buffer, pH and temperature of binding assays not in material (phase-separation assays: 10 mM HEPES pH 7.4, 20 mM K+, 10% PEG8K).
Data set [3] deals with T1, HMGB1 A box (termed HMGB1). The data set can be described thus: fluorescence titration (intrinsic HMGB1 fluorescence, 335 nm); K+; K+-containing buffer; 20 or 200 mM K+ in Fig S9 titrations (10 uM HMGB1); full buffer, pH and temperature of binding assays not in material (phase-separation assays: 10 mM HEPES pH 7.4, 20 mM K+, 10% PEG8K).
Data set [4] concerns the target T1, HMGB1 A box (termed HMGB1). Briefly: fluorescence titration; 20 mM K+; K+-containing buffer; 20 or 200 mM K+ in Fig S9 titrations (10 uM HMGB1); full buffer, pH and temperature of binding assays not in material (phase-separation assays: 10 mM HEPES pH 7.4, 20 mM K+, 10% PEG8K).

B1: 22R (GQKRAS) (structured_DNA)
DNA: AGGGCGGTGTGGGAAGAGGGAA
For the molecule B1, the Kd in data set [1] was determined as 7.04 µM; in data set [2], 4.24 µM; in data set [3], 4.08 µM; in data set [4], 3.24 µM.
